The subject of data set [1] is MS2 coat protein. The data set can be described thus: apparent KD of MS2 coat protein, switch ON state; designed switch direction (-1 OFF switch, 1 ON switch): -1; higher = weaker reporter binding. The following applies: FMN input: 0 or 200 uM; Eterna round: R93 (includes R88 designs). Summed up: (§1)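 SNAP-549-labelled MS2 coat protein was titrated onto designed RNA switches that had been transcribed on-chip from Illumina sequencing clusters. Amounts doubled from 0.7 or 1.5 nM to 3 µM in 100 mM Tris-HCl pH 7.5, 80 mM KCl, 4 mM MgCl2, with constant ligand or without. Apparent KD is the median per design of normalised cluster binding-curve fits.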

The test system of data set [2] is MS2 coat protein. The experiment in a line: apparent KD of MS2 coat protein, switch OFF state (with FMN for OFF switches, without FMN for ON switches); designed switch direction (-1 OFF switch, 1 ON switch): -1; higher = weaker reporter binding. The following applies: FMN input: 0 or 200 uM; Eterna round: R93 (includes R88 designs). Summed up: as §1
Data set [3] concerns MS2 coat protein. The experiment in a line: apparent KD of MS2 coat protein; higher = weaker reporter binding. The note with it: Eterna round: R107. In a few lines: as §1
Setting [4] is: input ligand: theophylline 20 uM.
The mark [5] stands for this setting: input ligand: theophylline 2 mM.
The mark [6] stands for this setting: input ligand: tryptophan 2.4 mM.

“AAAAAACAUGAGGAUCACCCAUGUAAGGAUAUGCGAUGGAAAAUAAAAAUAAAACAUAGCAGAAGGUACACCAA [Amethyst 82]”: the “apparent KD of MS2 coat protein” value came out at 29.4 nM with MS2 coat protein [1] and 28.2 nM in the data set with MS2 coat protein [2].
For “AAAAAACAUGAGGAUCACCCAUGUAAGGAUAUGCUCAAGCGAAAAAGCACAAAAAAGAGCAGAAGGUACAAAAA [66%, Wbt, 41]” the same measures were 22.6 nM and 31 nM.
With “AAAAAACAUGAGGAUCACCCAUGUCAGGAUAUACAAAAAUAAAUAAAAAUAAAAUAAAGUAGAAGGGACAAAAA [May 9]”, the “apparent KD of MS2 coat protein” value in the data set with MS2 coat protein [1] came out at 28.9 nM; with MS2 coat protein [2], 36.9 nM.
On the same counts, the results for “AAAAAACAUGAGGAUCACCCAUGUCAGGAUAUGCUCAGCAAAAAAAAAAAAAAGAACGGUAGAAGGGACAGAAA [Bilbo Confounded 22 - Jieux - Exclusion 1]” are 56.1 nM and 50.7 nM.
“AAAAAACAUGAGGAUCACCCAUGUGAGGAUAUAGGAAAAAAAAAAAAAAAAAAAAAAACUAGAAGGCACAAAAA [Gess I got it^^]”: the “apparent KD of MS2 coat protein” value in the data set with MS2 coat protein [1] came out at 35.2 nM; in the data set with MS2 coat protein [2], 41.7 nM.
In the case of “AAAAAACAUGAGGAUCACCCAUGUGAGGAUAUCAAAUAAAGGCACAUGAGAAGGCAUAUGAGAAGGCACAUGAA [Meechl MS2 Ex1 2]”, the “apparent KD of MS2 coat protein” value in the data set with MS2 coat protein [1] is 41.4 nM.
“AAAAAACAUGAGGAUCACCCAUGUGAGGAUAUCGAGAAGAAGAAGAAGAAGAAGAGAACGAGAAGGCACAAAAA [Exclusion 1 - G's]”: the “apparent KD of MS2 coat protein” value was 25.8 nM with MS2 coat protein [1] and 29.9 nM in the data set with MS2 coat protein [2].
On the same counts, the results for “AAAAAACAUGAGGAUCACCCAUGUGAGGAUAUGCAAAACCCAUAUAAAAAGGGAAAAAGCAGAAGGCGCAAAAA [Starry Exclusion 1.4 (wbt round 1 mod)]” are 26.5 nM and 24.2 nM.
Turning to “AAAAAACAUGAGGAUCACCCAUGUGAGGAUAUGCAAAACCCAUAUAAAAAGGGAAAAAGUAGAAGGCACAAAAA [wbt round 1 mod 10]”, the “apparent KD of MS2 coat protein” value in the data set on MS2 coat protein [1] amounted to 24.1 nM; with MS2 coat protein [2] it was 28.6 nM.
As to “AAAAAACAUGAGGAUCACCCAUGUGAGGAUAUGCAAAACUUAUAUAAAAAGGGAAAAAGUAGAAGGCACAAAAA [LROPPY Exclusion 1 - v09_water mod]”, the “apparent KD of MS2 coat protein” value in the data set on MS2 coat protein [1] came to 30.4 nM; with MS2 coat protein [2], 39.2 nM.
On the same counts, the results for “AAAAAACAUGAGGAUCACCCAUGUGAGGAUAUGCGAAAAAAAAAAUAAAAAAAAAAAAGCAGAAGGCACAAAAA [LROPPY Exclusion 1 - v05_deltaG=1.64]” are 37.6 nM and 58.5 nM.
“AAAAAACAUGAGGAUCACCCAUGUGAGGAUAUGCGAAAAAAAAAAUAAAAAAAAAAAAGUAGAAGGCACACCAA [Mat - Exclusion 1 - Eli mod - D55]”: the “apparent KD of MS2 coat protein” value in the data set on MS2 coat protein [1] is 41.9 nM; in the data set with MS2 coat protein [2], 44.1 nM.
On to “AAAAAACAUGAGGAUCACCCAUGUGAGGAUAUGGAAAAAUAAGGACAGUAAAGAUAAACCAGAAGGCACAAAUA [JR_Exc001_Sub1101]”, for which the “apparent KD of MS2 coat protein” value is 26.4 nM with MS2 coat protein [1] and 24.1 nM in the data set with MS2 coat protein [2].
As for “AAAAAACAUGAGGAUCACCCAUGUGAGGAUAUGUGAAAAAAAAAAUAAAAAAAAAAAAGCAGAAGGUACAAAAA [LROPPY Exclusion 1 - v03_deltaG=3.94]”, the “apparent KD of MS2 coat protein” value with MS2 coat protein [1] is 43.7 nM; in the data set with MS2 coat protein [2], 39.9 nM.
On the same counts, the results for “AAAAACUGAGGAUAUACAUGAGGAUCACCCAUGUAAAAAAAAAAAAAGGGAAAAAAAAGUAGAAGGCAGAAAAA [Nebiriau II]” are 26.1 nM and 41 nM.
For “AAAAAGCGAGGAUAUACAUGAGGAUCACCCAUGUAAAAGGUCGCGGGAGGGAGGGAAGGUAGAAGGCGCAAAAA [Excls3-VI]” the same measures were 15.4 nM and 14.1 nM.
On the same counts, the results for “AAAAAGCGAGGAUAUACAUGAGGAUCACCCAUGUCAAACGGUAAGACCGCAGGAAACAGUAGAAGGCGCAAAAA [Exclusion3-03]” are 58.3 nM and 91.1 nM.
For the sequence “AAAAAGGCAGGAUAUACGAGUCAAAGAAAAGACAAAAGGAAACAUGAGGAUCACCCAUGUAGAAGGGCCAAAAA [Fiskers exclusion D2 62% 6]”, the “apparent KD of MS2 coat protein” value with MS2 coat protein [1] was 28.2 nM; in the data set with MS2 coat protein [2], 16.7 nM.
Regarding “AAAAAGGGAGGAUAUACAUGAGGAUCACCCAUGUAUCAGACGAAAAAGAGUCUGAAAAGUAGAAGGCCCAAAAA [65%, Moding Exclusion3-cac2, 6]”, the “apparent KD of MS2 coat protein” value in the data set on MS2 coat protein [1] was 15.5 nM; with MS2 coat protein [2], 20.8 nM.
For “AAAAAGGGAGGAUAUACAUGAGGAUCACCCAUGUGAAAGACGAAAAAGAGUCUAAAGGGUAGAAGGCCCAAAAA [65%, Moding Exclusion3-cac2, 10]” the same measures were 51.1 nM and 49.2 nM.
On the same counts, the results for “AAAAAGUCAGGAUAUACAGAUAAAAAAACGAAAAAAAAUCUGUAGAAGGGACAUGAGGAUCACCCAUGUAAAAA [Ex 4 May 1]” are 61.8 nM and 40.1 nM.
As to “AAAAAGUGAGGAUAUACAUGAGGAUCACCCAUGUGAAAGUCGAAAAAAAAGACAAGAAGUAGAAGGCACAAAAA [Fiskers Exclusion 3 D2 variant]”, the “apparent KD of MS2 coat protein” value was determined as 24.3 nM with MS2 coat protein [1] and 29.3 nM in the data set on MS2 coat protein [2].
For “AAAAAGUGAGGAUAUGAAAAUAAAAAAAACAAACAAAUAAAUCAGAAGGCACAUGAGGAUCACCCAUGUAAAAA [JR_Exc004_Sub1202]” the same measures were 36.8 nM and 26.2 nM.
On to “AAAAAGUGAGGAUAUGCAGUGUCCUGUAGACGCGAGCACUUGUAGAAGGCACAUGAGGAUCACCCAUGUUUAAA [EX4 Malc#28]”, for which the results for the “apparent KD of MS2 coat protein” value in the data set on MS2 coat protein [1] and in the data set with MS2 coat protein [2] were 24 nM and 22.1 nM, respectively.
On the same counts, the results for “AAAAAGUGAGGAUAUGGUAAAAAAAAAAAAAAAAAAAACCUCCAGAAGGCACAUGAGGAUCACCCAUGUCAAAA [Jolly's Folly 3 - Jieux - Exclusion 4]” are 44.7 nM and 19 nM.
Regarding “AAAAAUGGAGGAUAUACAUGAGGAUCACCCAUGUGUGACUAUACUAAGCGCUCCUCAGGUAGAAGGCCAAAAAA [Gilly Gone Silly 16 - Jieux - Exclusion 3]”, the “apparent KD of MS2 coat protein” value turned out to be 83.5 nM in the data set with MS2 coat protein [1] and 99.5 nM in the data set on MS2 coat protein [2].
For “AAAACUGGAGGAUAUACAUGAGGAUCACCCAUGUGUGGAUGAGCUGUGUCGGCGUCAGGUAGAAGGCCACAAAA [Gilly Gone Silly 35 - Jieux - Exclusion 3]” the same measures were 36.3 nM and 43.1 nM.
On the same counts, the results for “AAAACUGGAGGAUAUACAUGAGGAUCACCCAUGUGUGGGUAUACUGUGUCGGCGUCAGGUAGAAGGCCAAAAAA [Gilly Gone Silly 29 - Jieux - Exclusion 3]” are 146 nM and 151 nM.
As to “UUGUUGUUUGGAAGGAGCGUGUAUGAUUAAGAACAUGAGGAUCACCCAUGUUGUAGGAUAGCACAGGUAGGUCGCCGGGUGGUGG [11.W]”, the “apparent KD of MS2 coat protein” value in the data set with MS2 coat protein [3] (input ligand: arginine 13.2 mM) stood at 18.8 nM; in the data set on MS2 coat protein [3] (input ligand: none), 14.8 nM; in the data set on MS2 coat protein [3] (setting [4]) it was 22.5 nM; in the data set with MS2 coat protein [3] (setting [5]) it was 23.5 nM; in the data set on MS2 coat protein [3] (setting [6]) it was 14.6 nM.
On to “UUGUUGUUUGGAAGGAGCGUGUAUGAUUAAGAACAUGAGGAUCACCCAUGUUGUAGGGUAGCACAGGUAGGUCGCCGGGUGGUGG [11.V]”, for which the “apparent KD of MS2 coat protein” value with MS2 coat protein [3] (input ligand: arginine 13.2 mM) came to 34.8 nM; in the data set on MS2 coat protein [3] (input ligand: none) it was 25.1 nM; in the data set on MS2 coat protein [3] (setting [4]), 36.8 nM; in the data set on MS2 coat protein [3] (setting [5]), 31.2 nM; in the data set on MS2 coat protein [3] (setting [6]), 21.1 nM.
For “UUUAAAAUAACAGAUACCAGCGUGUUAUAAAACAUGAGGAUCACCCAUGUAGUGAUCAAGCGCCCUUGGCAGCUGGUAUUUUAGG [7.E]”, the “apparent KD of MS2 coat protein” value with MS2 coat protein [3] (input ligand: arginine 13.2 mM) worked out at 186 nM; with MS2 coat protein [3] (setting [4]) it was 161 nM; with MS2 coat protein [3] (setting [6]) it was 132 nM.
On the same counts, the results for “UUUACAUGAGGAUCACCCAUGUGCCAUGAUACCAGACAUGAAAAUGUCCCUUGGCAGCAUGAAAGAUCCACGUCGGAAACGACGG [Krpole]” are 72.2 nM, 248 nM and 113 nM.
Regarding “UUUGAGAUAACAGAUACCAGCGUGUUAUAAAACAUGAGGAUCACCCAUGUAGUGAUCAAGCGCCCUUGGCAGCUGGUGUUUUAGG [7.H]”, the “apparent KD of MS2 coat protein” value worked out at 21.1 nM in the data set with MS2 coat protein [3] (input ligand: arginine 13.2 mM); 102 nM in the data set on MS2 coat protein [3] (input ligand: none); 383 nM with MS2 coat protein [3] (setting [4]); 469 nM in the data set with MS2 coat protein [3] (setting [5]); 141 nM in the data set with MS2 coat protein [3] (setting [6]).
On the same counts, the results for “UUUUACAUGAGGAUCACCCAUGUACAUGGGCGAGGACCGGUACGGCCGCCACUCGUGGGACCCACGGGCCCGCUUAGUGGGUACA [LarryB_001]” are 58.3 nM, 87.5 nM, 168 nM, 189 nM and 57.4 nM.
Regarding “UUUUACGCAAGUAAUUCCCGGGAACCGGAUACCAGCUCCUCCAACAGCCCUUGGCAGCCGACCACAUGAGGAUCACCCAUGUUUC [theeternabot_exclusion_MS2_Theo_A_28]”, the results for the “apparent KD of MS2 coat protein” value in the data set on MS2 coat protein [3] (input ligand: arginine 13.2 mM), in the data set with MS2 coat protein [3] (setting [4]) and in the data set on MS2 coat protein [3] (setting [6]) were 12 nM, 16.1 nM and 12.7 nM, respectively.
Consider “UUUUAGCAUCGAAGGAGCGCUGGUAGGUGACACAUGAGGAUCACCCAUGUGCUCCUUGCCGAGCAGGUAGGUCGCGAUGCUAUUU [SSAB NP+V+V2 #8]”, for which the “apparent KD of MS2 coat protein” value was found to be 31.4 nM with MS2 coat protein [3] (input ligand: arginine 13.2 mM); 52.6 nM in the data set with MS2 coat protein [3] (input ligand: none); 62.9 nM in the data set on MS2 coat protein [3] (setting [4]); 73.3 nM in the data set with MS2 coat protein [3] (setting [5]); 46.2 nM with MS2 coat protein [3] (setting [6]).
For “UUUUUUAACUGAAGGAGCGUCACAUGAGGAUCACCCAUGUAUUAGAUGAGAAGGAUCUUGUGGCAGGUAGGUCGCAGAGGAAGGG [e-argB-V]” the same measures were 99.6 nM, 389 nM, 187 nM, 181 nM and 136 nM.

Values taken from the supplement of paper PMC9170038.
